Molecular target: TNFa, P01375
Experiment: not stated (told as a known affinity); low affinity dAb, known affinity, lower bound
Conditions: remark: other sources report otherwise

TNFa, P01375, sequence (P01375 77-233 limits assumed): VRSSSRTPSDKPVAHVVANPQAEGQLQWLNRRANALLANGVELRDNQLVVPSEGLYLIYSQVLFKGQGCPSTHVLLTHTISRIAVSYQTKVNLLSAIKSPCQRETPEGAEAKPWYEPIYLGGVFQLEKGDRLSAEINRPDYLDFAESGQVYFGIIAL

Kd: > 5 µM
B1: Vk(TAR1-5) (protein)
VL: DIQMTQSPSSLSASVGDRVTITCRASQSIFMNLLWYQQKPGKAPKLLIYNASVLQSGVPSRFSGSGSGTDFTLTISSLQPEDFATYYCQQVVWRPFTFGQGTKVEIKR
modifications: here or on the partner: biotinylated (sites not given)

From patent US20080038735A1
